Consider 1 substance from publication PMC6179994.

The target in the test is full-length rabbit TRPV5 (transient receptor potential vanilloid 5) (rabbit) (UniProt Q9XSM3). As to the kind of experiment: cryo-EM structure; detergent solubilized TRPV5 (DMNG) incubated 1 h with 10 mM CaCl2 and rat CaM at 1:20 (TRPV5 tetramer:CaM), then SEC; map at 4.4 Å without applied symmetry.
full-length rabbit TRPV5 (transient receptor potential vanilloid 5) (rabbit), sequence (Q9XSM3 whole entry): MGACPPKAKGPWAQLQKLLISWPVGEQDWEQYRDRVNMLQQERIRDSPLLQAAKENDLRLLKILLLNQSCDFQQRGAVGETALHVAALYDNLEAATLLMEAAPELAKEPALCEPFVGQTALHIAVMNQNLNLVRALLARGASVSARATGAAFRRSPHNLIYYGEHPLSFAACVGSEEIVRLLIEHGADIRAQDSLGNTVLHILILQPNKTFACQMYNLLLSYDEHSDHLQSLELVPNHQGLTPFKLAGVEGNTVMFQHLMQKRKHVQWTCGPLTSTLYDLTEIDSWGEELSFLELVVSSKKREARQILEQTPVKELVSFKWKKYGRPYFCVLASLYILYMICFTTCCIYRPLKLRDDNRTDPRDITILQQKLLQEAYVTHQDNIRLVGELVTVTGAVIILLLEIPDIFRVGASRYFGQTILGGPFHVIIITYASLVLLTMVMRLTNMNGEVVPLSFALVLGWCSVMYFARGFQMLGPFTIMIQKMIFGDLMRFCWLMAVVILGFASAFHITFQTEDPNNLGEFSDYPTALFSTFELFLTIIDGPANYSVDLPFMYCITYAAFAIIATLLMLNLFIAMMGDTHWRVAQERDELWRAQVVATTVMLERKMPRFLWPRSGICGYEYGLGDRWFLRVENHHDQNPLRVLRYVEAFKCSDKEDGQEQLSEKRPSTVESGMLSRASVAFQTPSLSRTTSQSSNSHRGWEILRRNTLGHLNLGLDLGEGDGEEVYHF

Turning to “rat calmodulin (CaM), calcium-activated (from UniProt P0DP29 1-149) (natural protein)”, the stoichiometry N (CaM per TRPV5 tetramer) turned out to be 1.
